The source of these data is paper PMC12519216.

In the assay the target is complex III (ubiquinone cytochrome C oxidoreductase) (mouse (endogenous in cerebellum)) (UniProt Q9CZ13). The assay is described as follows: native gel or EMSA; blue native PAGE (4 to 12% NativePAGE) of cerebellum mitochondria solubilised in 1% digitonin, WT and Mecr285/del10 mice; transferred to PVDF and immunoblotted; in-gel activity assays on parallel gels. A general note: A gel shift assay detects complexes by their altered migration in electrophoresis.

As a reminder, the stoichiometry N is the number of molecules, sites or subunits per partner or assembly. In turn, “complex III (ubiquinone cytochrome C oxidoreductase) (from UniProt Q9CZ13 35-480)” gave a stoichiometry N of 2.
